Assay results: patent publication US20250177546A1 (SANYOU BIOPHARMACEUTICALS, published 2025)
Residue numbers refer to the chain shown, from its start.

B1: C42 (chimeric antibody) (antibody, human IgG1, kappa, V domains shown)
VH: EVMLVESGGGLVKPGGSLKLSCAASGFTFSNYIMSWVRQTPEKRLEWVATINSGGTNTYYPDSVKGRFTISRDNAKNSLYLQMNSLRSEDTALYYCTRYNGNYVWFAYWGQGTLVTVSA
VL: DIVLTQSPAIMSASPGEKVTMTCSASSSVSFIYWYQQKPGSSPRLLIYDTSNLASGVPVRFSGSGSGTSYSLTISRMEAEDAATYYCQQWSNYHFTFGSGTKLEIKR
notes: ExpiCHO expression
B2: B32 (chimeric antibody) (antibody, human IgG1, kappa, V domains shown)
VH: EVKLMESGGGLVKPGGSLKLSCAASGFAFSSYAMSWVRQTPDKRLEWVASINRDVTTYYPDSMKGRFTISRDNARNILYLQMSSLRSEDTAMYYCARGYYYGGGPYWHFDVWGAGTTVTVSS
VL: DIQITQSPSSMYASLGERVTITCKASQDINSYLTWFQQKPGKSPKTLIYRANRLVDGVPSRFSGSGSGQDYSLTISSLEYEDMGIYYCLQFDEFPYTFGGGTKLEIKR
notes: ExpiCHO expression
B3: C38 (chimeric antibody) (antibody, human IgG1, kappa, V domains shown)
VH: EVMLVESGGGLVRPGGSLKLSCAASGFTFSSYAMSWVRQTPDKRLEWVASINRDVTTYYPDSVKGRFTISRDNARNILYLQMSSLRSEDTAMYYCARDYYYGSSLYYGMDYWGQGTSVTVSS
VL: B2 VL with I4M, Y12H, S31N, L33V, T34S, L73F
notes: ExpiCHO expression
B4: C77 (chimeric antibody) (antibody, human IgG1, kappa, V domains shown)
VH: EVKLVESGGGLVKPGGSLKLSCAASGFSFSNYAMSWVRQTPEKRLEWVASINSGVTTYYPDSVKGRFTVSRDNARNILYLHMTGLRSEDTAIYYCSRGYYYGGSPYWHFDVWGAGTTVTVSS
VL: B2 VL with I4M, Y12H, S31N, L33V, T34S, L73F
notes: ExpiCHO expression
B5: B34 (chimeric antibody) (antibody, human IgG1, kappa, V domains shown)
VH: EVQLVESGGGLVQPKGSLKLSCAASGFTFSRYAMSWVRQTPEKRLEWVASISTGGSPYYPDSVKGRFTISRDNARNILYLQMSSLKSEDTAMYYCARGYYYNSSPHWYFAVWGAGTSVTVSS
VL: B2 VL with I4M, M11L, Y12S, T34S, F91Y
notes: ExpiCHO expression
B6: B74 (chimeric antibody) (antibody, human IgG1, kappa, V domains shown)
VH: EVMLVESGGNLVKPGGSLKLSCAASGFTFSIYAMSWVRQTPEKRLEWVASISGGGTAYYPDSVKGRFTISRDNARNILYLQMSSLRSEDTAIYYCARGYYYGGSPYWHFDVWGAGTTVTVSS
VL: B2 VL with Q3K, I4M, T34S, M83I, F91I
notes: ExpiCHO expression
B7: B39 (chimeric antibody) (antibody, human IgG1, kappa, V domains shown)
VH: EVKLVESGGGLVKPGGSLKLSCAASGFTFSTYAMSWVRQTPEKRLEWVASISTGASTYYPDSVKGRFTISRDNARNILYLQMSSLRSEDTAMYYCAREETTTAALYYAMDYWGQGTSVTVSS
VL: B2 VL with Q3K, S31N, T34S
notes: ExpiCHO expression
B8: M71 (chimeric antibody) (antibody, human IgG1, kappa, V domains shown)
VH: B3 VH with R13K, S31R, D42E, D54G, V55G, N76D, M92I, Y107N, Y111F, T119I
VL: B2 VL with I4M, T34S, Y80S
notes: ExpiCHO expression
B9: M78 (chimeric antibody) (antibody, human IgG1, kappa, V domains shown)
VH: B3 VH with T40S, D42E, D54G, V55G, N76D, M92I, S104N, Y107N, T119I
VL: B2 VL with Q3K, T34S
notes: ExpiCHO expression
B10: B62-H2L3 (antibody, human IgG1, kappa)
heavy: not shown
light: DIQMTQSPSSLSASVGDRVTITCVTSIDIDDDVNWYQQKPGKAPKLLISAGNTLRPGVPSRFSGSGSGTDFTFTISSLQPEDIATYYCLQSDNLPYTFGGGTKLEIKRTVAAPSVFIFPPSDEQLKSGTASVVCLLNNFYPREAKVQWKVDNALQSGNSQESVTEQDSKDSTYSLSSTLTLSKADYEKHKVYACEVTHQGLSSPVTKSFNRGEC

Target: T1, huROR1-His (human ROR1 ECD AA30-406 with C-terminal His tag, made in house) (human, UniProt Q01973 30-406)
T1 construct: range 30-406; Expressed in HEK293; also called antigen protein huROR1-His; not shown: C-terminal His tag
Test: Gator (BLI) Advanced Kinetics; antibody 30 nM, huROR1-His 480-7.5 nM
Protocol: First, Q buffer was prepared with PBS (10 mM pH7.4) (IgG-free, purchased from Jackson ImmunoResearch Lab)+0.02% Tween 20 (purchased from thermo)+0.2% BSA (purchased from source culture), and the stock solution of the test antibody was diluted with the prepared Q buffer to a working solution with a final concentration of 30 nM, the stock solution of the antigen protein huROR1-His was prepared with Q buffer into a working solution with multiple dilutions (480, 240, 120, 60, 30, 15, 7.5 nM), and detection and analysis was then performed with Gator instrument and its accompanying software, selecting the Advanced Kinetics experimental mode is used.

T1 sequence (Q01973 30-406 limits assumed): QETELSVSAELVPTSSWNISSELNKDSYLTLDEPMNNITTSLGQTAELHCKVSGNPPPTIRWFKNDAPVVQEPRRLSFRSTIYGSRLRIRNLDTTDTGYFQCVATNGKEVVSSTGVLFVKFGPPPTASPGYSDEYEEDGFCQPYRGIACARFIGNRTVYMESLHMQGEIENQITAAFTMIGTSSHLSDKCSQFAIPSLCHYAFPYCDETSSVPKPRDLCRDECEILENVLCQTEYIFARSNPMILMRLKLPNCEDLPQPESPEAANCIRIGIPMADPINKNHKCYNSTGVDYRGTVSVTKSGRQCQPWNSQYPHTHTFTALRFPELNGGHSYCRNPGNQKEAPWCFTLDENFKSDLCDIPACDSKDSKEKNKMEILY

Kd [nM] | koff [s⁻¹] | kon [M⁻¹ s⁻¹] | Binder
29.6 | 0.00325 | 110000 | B1
1.25 | 0.000377 | 301000 | B2
1.34 | 0.000422 | 314000 | B3
2.47 | 0.000774 | 314000 | B4
2.52 | 0.000609 | 241000 | B5
1.44 | 0.000464 | 323000 | B6
4.43 | 0.00135 | 304000 | B7
1.54 | 0.00054 | 351000 | B8
1.86 | 0.000614 | 330000 | B9

Target: T1, huROR1-His (human ROR1 ECD AA30-406 …)
Test: ELISA, huROR1-His coated plate, goat anti-human Fc-HRP, OD450

EC50 [µg/mL] | Binder
0.0063 | B10

Target: T1, huROR1-His (human ROR1 ECD AA30-406 …)
Test: ELISA, huROR1-His coated at 2 µg/mL, goat anti-human Fc-HRP, OD450
Protocol: (§1) 96-well ELISA plate was coated with 2 μg/mL huROR1-His (30 μL/well) at 4° C. overnight. The next day, the plate was washed three times with PBST and then blocked with 5% skim milk for 2 h. […] After washing with PBST for three times, the secondary antibody Goat-anti-human Fc-HRP (abcam, ab97225) was added and incubated for 1 h. After incubation, the plate was washed with PBST for 6 times and TMB (SurModics, TMBS-1000-01) was added for color development. According to the color development results, 2 M HCl was added to terminate the reaction, and the data were read at OD450 using a microplate reader (Molecular Devices, SpecterMax 190).

EC50 [µg/mL] | Binder
0.00203 | B1
0.00575 | B2
0.00371 | B3
0.00603 | B4
0.00628 | B5
0.00513 | B6
0.00552 | B7
0.0077 | B8
0.00212 | B9

Target: T2, huROR2-His (human ROR2 ECD AA34-403 with C-terminal His tag) (human, UniProt Q01974 34-403)
T2 construct: range 34-403; Expressed in HEK293; also called human ROR2 antigen protein; not shown: C-terminal His tag
Test: ELISA, huROR2-His coated at 2 µg/mL, goat anti-human Fc-HRP, OD450
Protocol: as §1, with “huROR2-His” for “huROR1-His”, “TMBS-1000-0)” for “TMBS-1000-01)”

T2 sequence (Q01974 34-403 limits assumed): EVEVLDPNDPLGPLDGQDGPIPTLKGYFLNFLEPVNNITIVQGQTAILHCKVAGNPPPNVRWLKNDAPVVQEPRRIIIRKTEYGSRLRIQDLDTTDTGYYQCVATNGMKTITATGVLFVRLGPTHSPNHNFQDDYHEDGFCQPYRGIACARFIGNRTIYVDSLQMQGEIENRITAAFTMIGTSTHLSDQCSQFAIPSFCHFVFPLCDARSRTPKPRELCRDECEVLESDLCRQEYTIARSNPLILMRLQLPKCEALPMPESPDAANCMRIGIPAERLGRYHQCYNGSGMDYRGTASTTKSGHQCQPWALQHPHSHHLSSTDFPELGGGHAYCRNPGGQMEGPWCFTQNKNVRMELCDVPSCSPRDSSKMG

binding result | Binder
no binding (tested: 1 µg/mL) | B1
no binding (tested: 1 µg/mL) | B2
no binding (tested: 1 µg/mL) | B3
no binding (tested: 1 µg/mL) | B4
no binding (tested: 1 µg/mL) | B5
no binding (tested: 1 µg/mL) | B6
no binding (tested: 1 µg/mL) | B7
no binding (tested: 1 µg/mL) | B8
no binding (tested: 1 µg/mL) | B9

Target: T3, MusROR1-His (mouse ROR1 ECD AA30-406 with C-terminal His tag) (mouse, UniProt Q9Z139 30-406)
T3 construct: range 30-406; Expressed in HEK293; also called mouse ROR1 antigen protein; not shown: C-terminal His tag
Test: ELISA, MusROR1-His coated at 2 µg/mL, goat anti-human Fc-HRP, OD450
Protocol: as §1, with “MusROR1-His” for “huROR1-His”

T3 sequence (Q9Z139 30-406 limits assumed): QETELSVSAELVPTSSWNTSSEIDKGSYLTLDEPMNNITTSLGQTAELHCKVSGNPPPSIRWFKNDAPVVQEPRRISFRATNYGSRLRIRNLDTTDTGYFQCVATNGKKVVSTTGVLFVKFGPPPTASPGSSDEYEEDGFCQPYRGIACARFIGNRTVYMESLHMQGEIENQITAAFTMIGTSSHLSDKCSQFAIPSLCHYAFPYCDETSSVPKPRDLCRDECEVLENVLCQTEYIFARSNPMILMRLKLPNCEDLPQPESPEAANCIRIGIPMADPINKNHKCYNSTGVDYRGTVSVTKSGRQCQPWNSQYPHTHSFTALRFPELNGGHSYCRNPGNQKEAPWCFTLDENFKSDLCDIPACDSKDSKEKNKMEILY

binding result | EC50 (read off the curve) [µg/mL] | Binder
binds | – | B1
– | ~0.04 | B2
– | ~0.03 | B3
no binding (tested: 1 µg/mL) | – | B4
no binding (tested: 1 µg/mL) | – | B5
no binding (tested: 1 µg/mL) | – | B6
no binding (tested: 1 µg/mL) | – | B7
no binding (tested: 1 µg/mL) | – | B8
no binding (tested: 1 µg/mL) | – | B9

Target: T4, human ROR1 on cells (full-length human ROR1 on huROR1-HEK293 cells; human ROR1 on A549 and HT-29 tumor cells) (human, UniProt Q01973 30-937)
T4 construct: whole, on cells; also called hROR1-HEK293T; A549 tumor cells
Test: flow cytometry (FACS) on A549 tumor cells, anti-human IgG-Fc secondary antibody, MFI
Protocol: (§2) In this example, the binding activity of the antibody was evaluated using two types of cells, huROR1-HEK293 cells over-expressing human ROR1 and A549 tumor cells.
(§3) The specific method was as follows: huROR1-HEK293 cells or A549 cells in the logarithmic growth phase were prepared to a single-cell suspension, the density was adjusted to 1×10⁶ cells/mL, then 100 μL/well cells were added to a 96-well round-bottom plate, centrifuged at 4° C., 300 g, and the supernatant was removed. […] After the incubation, the cell mixture was washed three times and then 100 μL of 1:300 diluted secondary antibody Goat F(ab′)₂ Anti-Human IgG-Fc (abcam, ab98596) was added. The mixture was incubated at 4° C. in the dark for 30 min. After washing three times, the cells were detected by flow cytometry (Beckman, CytoFLEX AOO-1-1102).

T4 sequence (Q01973 30-937): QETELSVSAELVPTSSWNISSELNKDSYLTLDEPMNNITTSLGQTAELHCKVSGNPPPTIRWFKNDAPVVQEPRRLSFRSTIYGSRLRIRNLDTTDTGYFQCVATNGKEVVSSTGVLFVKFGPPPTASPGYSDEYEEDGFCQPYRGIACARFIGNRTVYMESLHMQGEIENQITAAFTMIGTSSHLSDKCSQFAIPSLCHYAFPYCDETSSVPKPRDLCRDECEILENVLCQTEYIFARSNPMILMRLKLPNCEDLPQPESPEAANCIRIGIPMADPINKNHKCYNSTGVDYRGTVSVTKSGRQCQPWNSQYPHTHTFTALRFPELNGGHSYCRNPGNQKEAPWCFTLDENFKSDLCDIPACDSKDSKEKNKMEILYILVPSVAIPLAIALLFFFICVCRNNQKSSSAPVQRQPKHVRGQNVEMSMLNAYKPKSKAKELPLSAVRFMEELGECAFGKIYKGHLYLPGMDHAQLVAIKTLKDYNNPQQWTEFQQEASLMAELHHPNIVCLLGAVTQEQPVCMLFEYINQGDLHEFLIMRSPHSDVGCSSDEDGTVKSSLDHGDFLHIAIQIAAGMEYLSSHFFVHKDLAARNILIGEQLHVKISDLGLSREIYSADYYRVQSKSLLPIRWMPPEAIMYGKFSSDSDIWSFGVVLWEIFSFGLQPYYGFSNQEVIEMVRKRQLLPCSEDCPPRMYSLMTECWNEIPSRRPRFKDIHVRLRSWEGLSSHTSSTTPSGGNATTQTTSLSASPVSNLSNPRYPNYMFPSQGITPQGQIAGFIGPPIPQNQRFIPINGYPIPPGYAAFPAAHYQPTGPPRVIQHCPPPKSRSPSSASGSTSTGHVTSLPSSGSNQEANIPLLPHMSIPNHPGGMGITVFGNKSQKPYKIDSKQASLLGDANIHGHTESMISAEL

EC50 (read off the curve) [µg/mL] | Binder
~0.03 | B1
~0.02 | B2
~0.02 | B3
~0.02 | B4
~0.04 | B5
~0.01 | B6
~0.01 | B7
~0.01 | B8
~0.02 | B9

Target: T4, human ROR1 on cells (full-length human …)
Test: flow cytometry (FACS) on huROR1-HEK293 cells, anti-human IgG-Fc secondary antibody, MFI
Protocol: as §2, §3

EC50 (read off the curve) [µg/mL] | Binder
~0.2 | B1
~0.1 | B2
~0.1 | B3
~0.1 | B4
~0.2 | B5
~0.2 | B6
~0.1 | B7
~0.08 | B8
~0.1 | B9
